Results: patent publication US20220048967A1 (published 2022)
Residue numbers refer to the chain shown, from its start. Numbered stars: 1 amine (or outer) side, 2 acyl side, 3 side chain; on linkers, the order of the positions; unused ones are H or OH. Square brackets hold non-standard residues; d marks the D form. Side chains are listed from the residue outwards. Ends that are not written are not given here. * marks the point of attachment. C18 diacid = O=C(O)CCCCCCCCCCCCCCCCC(=O)*; γGlu = O=C(O)[C@H](CCC(=O)[*:2])N[*:1]; AEEA = NCCOCCOCC(=O)O; Aib = CC(C)(N)C(=O)O

T1: human gastric inhibitory peptide receptor (GIPR) (human, UniProt P48546 22-466)
T1 sequence (looked up): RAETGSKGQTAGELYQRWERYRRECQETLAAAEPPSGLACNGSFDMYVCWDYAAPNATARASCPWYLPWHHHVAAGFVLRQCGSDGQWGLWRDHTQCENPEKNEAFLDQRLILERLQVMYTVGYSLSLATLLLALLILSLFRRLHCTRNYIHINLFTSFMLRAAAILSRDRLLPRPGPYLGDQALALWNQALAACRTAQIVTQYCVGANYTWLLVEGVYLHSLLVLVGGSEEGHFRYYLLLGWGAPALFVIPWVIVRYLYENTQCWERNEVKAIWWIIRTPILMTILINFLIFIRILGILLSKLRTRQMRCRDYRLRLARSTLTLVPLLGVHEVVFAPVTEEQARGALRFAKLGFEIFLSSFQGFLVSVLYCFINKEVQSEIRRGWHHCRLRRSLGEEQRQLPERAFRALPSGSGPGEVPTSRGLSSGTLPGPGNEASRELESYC

B1: Example 261 (peptide)
peptide: YXEGTFTSDYSILLDKKAQEAFIEYLIEGGPSSGAPPPS
modifications: Aib2, (2-[2-(2-Amino-ethoxy)-ethoxy]-acetyl)2-(γ-Glu)-CO-(CH2)18-CO2H on K17, C-terminal NH2
B2: Example 262 (peptide)
peptide: B1 peptide with E20T
modifications: Aib2, (2-[2-(2-Amino-ethoxy)-ethoxy]-acetyl)2-(γ-Glu)-CO-(CH2)18-CO2H on K17, C-terminal NH2
B3: Example 263 (peptide)
peptide: B1 peptide with E20S
modifications: Aib2, (2-[2-(2-Amino-ethoxy)-ethoxy]-acetyl)2-(γ-Glu)-CO-(CH2)18-CO2H on K17, C-terminal NH2
B4: Example 264 (peptide)
peptide: YXEGTXTSDXSIXLDXKAQXEFIXXLIEGGPSSG
modifications: Aib2, αMeF(2F)6, 4Pal10, αMeF13 (so in the source), Orn16, (2-[2-(2-Amino-ethoxy)-ethoxy]-acetyl)2-(γ-Glu)-CO-(CH2)16-CO2H on K17, Aib20, D-Glu24, αMeY25, C-terminal NH2
B5: Example 265 (peptide)
peptide: YXEGTXTSDXSIXLDXKAQXEFIXXLIEGG
modifications: Aib2, αMeF(2F)6, 4Pal10, αMeF13 (so in the source), Orn16, (2-[2-(2-Amino-ethoxy)-ethoxy]-acetyl)2-(γ-Glu)-CO-(CH2)16-CO2H on K17, Aib20, D-Glu24, αMeY25, C-terminal NH2
B6: Example 266 (peptide)
peptide: Y[Aib]EGTFTSDYSILLDKK([AEEA-AEEA-γGlu-C18 diacid])AQ[Aib]AFIEYLIEGGPSSG-NH2
modifications: N-terminus assumed
SMILES: CC[C@H](C)[C@H](NC(=O)[C@H](CC(C)C)NC(=O)[C@H](Cc1ccc(O)cc1)NC(=O)[C@H](CCC(=O)O)NC(=O)[C@@H](NC(=O)[C@H](Cc1ccccc1)NC(=O)[C@H](C)NC(=O)C(C)(C)NC(=O)[C@H](CCC(N)=O)NC(=O)[C@H](C)NC(=O)[C@H](CCCCNC(=O)COCCOCCNC(=O)COCCOCCNC(=O)CC[C@H](NC(=O)CCCCCCCCCCCCCCCCC(=O)O)C(=O)O)NC(=O)[C@H](CCCCN)NC(=O)[C@H](CC(=O)O)NC(=O)[C@H](CC(C)C)NC(=O)[C@H](CC(C)C)NC(=O)[C@@H](NC(=O)[C@H](CO)NC(=O)[C@H](Cc1ccc(O)cc1)NC(=O)[C@H](CC(=O)O)NC(=O)[C@H](CO)NC(=O)[C@@H](NC(=O)[C@H](Cc1ccccc1)NC(=O)[C@@H](NC(=O)CNC(=O)[C@H](CCC(=O)O)NC(=O)C(C)(C)NC(=O)[C@@H](N)Cc1ccc(O)cc1)[C@@H](C)O)[C@@H](C)O)[C@@H](C)CC)[C@@H](C)CC)C(=O)N[C@@H](CCC(=O)O)C(=O)NCC(=O)NCC(=O)N1CCC[C@H]1C(=O)N[C@@H](CO)C(=O)N[C@@H](CO)C(=O)NCC(N)=O
B7: Example 267 (peptide)
peptide: Y[Aib]EGTFTSDYSILLDKK([AEEA-AEEA-γGlu-C18 diacid])AQ[Aib]AFIEYLIEGG-NH2
modifications: N-terminus assumed
SMILES: CC[C@H](C)[C@H](NC(=O)[C@H](CC(C)C)NC(=O)[C@H](Cc1ccc(O)cc1)NC(=O)[C@H](CCC(=O)O)NC(=O)[C@@H](NC(=O)[C@H](Cc1ccccc1)NC(=O)[C@H](C)NC(=O)C(C)(C)NC(=O)[C@H](CCC(N)=O)NC(=O)[C@H](C)NC(=O)[C@H](CCCCNC(=O)COCCOCCNC(=O)COCCOCCNC(=O)CC[C@H](NC(=O)CCCCCCCCCCCCCCCCC(=O)O)C(=O)O)NC(=O)[C@H](CCCCN)NC(=O)[C@H](CC(=O)O)NC(=O)[C@H](CC(C)C)NC(=O)[C@H](CC(C)C)NC(=O)[C@@H](NC(=O)[C@H](CO)NC(=O)[C@H](Cc1ccc(O)cc1)NC(=O)[C@H](CC(=O)O)NC(=O)[C@H](CO)NC(=O)[C@@H](NC(=O)[C@H](Cc1ccccc1)NC(=O)[C@@H](NC(=O)CNC(=O)[C@H](CCC(=O)O)NC(=O)C(C)(C)NC(=O)[C@@H](N)Cc1ccc(O)cc1)[C@@H](C)O)[C@@H](C)O)[C@@H](C)CC)[C@@H](C)CC)C(=O)N[C@@H](CCC(=O)O)C(=O)NCC(=O)NCC(N)=O
B8: Example 268 (peptide)
peptide: Y[Aib]EGTFTSDYSILLDEK([AEEA-AEEA-γGlu-C18 diacid])AQ[Aib]AFIEYLIEGGPSSG-NH2
modifications: N-terminus assumed
SMILES: CC[C@H](C)[C@H](NC(=O)[C@H](CC(C)C)NC(=O)[C@H](Cc1ccc(O)cc1)NC(=O)[C@H](CCC(=O)O)NC(=O)[C@@H](NC(=O)[C@H](Cc1ccccc1)NC(=O)[C@H](C)NC(=O)C(C)(C)NC(=O)[C@H](CCC(N)=O)NC(=O)[C@H](C)NC(=O)[C@H](CCCCNC(=O)COCCOCCNC(=O)COCCOCCNC(=O)CC[C@H](NC(=O)CCCCCCCCCCCCCCCCC(=O)O)C(=O)O)NC(=O)[C@H](CCC(=O)O)NC(=O)[C@H](CC(=O)O)NC(=O)[C@H](CC(C)C)NC(=O)[C@H](CC(C)C)NC(=O)[C@@H](NC(=O)[C@H](CO)NC(=O)[C@H](Cc1ccc(O)cc1)NC(=O)[C@H](CC(=O)O)NC(=O)[C@H](CO)NC(=O)[C@@H](NC(=O)[C@H](Cc1ccccc1)NC(=O)[C@@H](NC(=O)CNC(=O)[C@H](CCC(=O)O)NC(=O)C(C)(C)NC(=O)[C@@H](N)Cc1ccc(O)cc1)[C@@H](C)O)[C@@H](C)O)[C@@H](C)CC)[C@@H](C)CC)C(=O)N[C@@H](CCC(=O)O)C(=O)NCC(=O)NCC(=O)N1CCC[C@H]1C(=O)N[C@@H](CO)C(=O)N[C@@H](CO)C(=O)NCC(N)=O
B9: Example 269 (peptide)
peptide: Y[Aib]EGTFTSDYSILLDEK([AEEA-AEEA-γGlu-C18 diacid])AQ[Aib]AFIEYLIEGG-NH2
modifications: N-terminus assumed
SMILES: CC[C@H](C)[C@H](NC(=O)[C@H](CC(C)C)NC(=O)[C@H](Cc1ccc(O)cc1)NC(=O)[C@H](CCC(=O)O)NC(=O)[C@@H](NC(=O)[C@H](Cc1ccccc1)NC(=O)[C@H](C)NC(=O)C(C)(C)NC(=O)[C@H](CCC(N)=O)NC(=O)[C@H](C)NC(=O)[C@H](CCCCNC(=O)COCCOCCNC(=O)COCCOCCNC(=O)CC[C@H](NC(=O)CCCCCCCCCCCCCCCCC(=O)O)C(=O)O)NC(=O)[C@H](CCC(=O)O)NC(=O)[C@H](CC(=O)O)NC(=O)[C@H](CC(C)C)NC(=O)[C@H](CC(C)C)NC(=O)[C@@H](NC(=O)[C@H](CO)NC(=O)[C@H](Cc1ccc(O)cc1)NC(=O)[C@H](CC(=O)O)NC(=O)[C@H](CO)NC(=O)[C@@H](NC(=O)[C@H](Cc1ccccc1)NC(=O)[C@@H](NC(=O)CNC(=O)[C@H](CCC(=O)O)NC(=O)C(C)(C)NC(=O)[C@@H](N)Cc1ccc(O)cc1)[C@@H](C)O)[C@@H](C)O)[C@@H](C)CC)[C@@H](C)CC)C(=O)N[C@@H](CCC(=O)O)C(=O)NCC(=O)NCC(N)=O
B10: Example 270 (peptide)
peptide: Y[Aib]EGTFTSDYSILLDKK([AEEA-AEEA-γGlu-C18 diacid])AQ[Aib]EFIEYLIEGGPSSG-NH2
modifications: N-terminus assumed
SMILES: CC[C@H](C)[C@H](NC(=O)[C@H](CC(C)C)NC(=O)[C@H](Cc1ccc(O)cc1)NC(=O)[C@H](CCC(=O)O)NC(=O)[C@@H](NC(=O)[C@H](Cc1ccccc1)NC(=O)[C@H](CCC(=O)O)NC(=O)C(C)(C)NC(=O)[C@H](CCC(N)=O)NC(=O)[C@H](C)NC(=O)[C@H](CCCCNC(=O)COCCOCCNC(=O)COCCOCCNC(=O)CC[C@H](NC(=O)CCCCCCCCCCCCCCCCC(=O)O)C(=O)O)NC(=O)[C@H](CCCCN)NC(=O)[C@H](CC(=O)O)NC(=O)[C@H](CC(C)C)NC(=O)[C@H](CC(C)C)NC(=O)[C@@H](NC(=O)[C@H](CO)NC(=O)[C@H](Cc1ccc(O)cc1)NC(=O)[C@H](CC(=O)O)NC(=O)[C@H](CO)NC(=O)[C@@H](NC(=O)[C@H](Cc1ccccc1)NC(=O)[C@@H](NC(=O)CNC(=O)[C@H](CCC(=O)O)NC(=O)C(C)(C)NC(=O)[C@@H](N)Cc1ccc(O)cc1)[C@@H](C)O)[C@@H](C)O)[C@@H](C)CC)[C@@H](C)CC)C(=O)N[C@@H](CCC(=O)O)C(=O)NCC(=O)NCC(=O)N1CCC[C@H]1C(=O)N[C@@H](CO)C(=O)N[C@@H](CO)C(=O)NCC(N)=O

target: T1, human gastric inhibitory peptide …; assay: cell-based or functional assay

Row | Binder | hGIPR cAMP EC50 ratio | hGIPR cAMP Rel EC50 [nM]
1 | B1 | 0.936 | 0.16
2 | B2 | 1.15 | 0.13
3 | B3 | 0.473 | 0.317
4 | B4 | 8.4 | 0.0196
5 | B5 | 7.56 | 0.0229
6 | B6 | 2.82 | 0.0442
7 | B7 | 1.5 | 0.108
8 | B8 | 0.851 | 0.239
9 | B9 | 0.825 | 0.257
10 | B10 | 0.627 | 0.328

target: human GLP-1 receptor (GLP-1R) (human, UniProt P43220 24-463); assay: cell-based or functional assay

Row | Binder | hGLP1R cAMP EC50 ratio | hGLP1R cAMP Rel EC50 [nM]
11 | B1 | 0.75 | 0.0948
12 | B2 | 0.754 | 0.0943
13 | B3 | 0.906 | 0.0785
14 | B4 | 3.19 | 0.0229
15 | B5 | 3.27 | 0.0223
16 | B6 | 0.627 | 0.0883
17 | B7 | 0.974 | 0.054
18 | B8 | 0.935 | 0.0572
19 | B9 | 0.828 | 0.0595
20 | B10 | 0.4 | 0.128
